Reference: patent US9549967B2, “Regulation of sodium channels by PLUNC proteins” (The University of North Carolina at Chapel Hill, priority 2009, dated 2017)
Entries after “also recorded” stand apart in the source; their conditions may differ.

T1: ENaC (Homo sapiens, UniProt P37088+P51168+P51170)
T1 construct: endogenous in cells; host or cells: primary human bronchial epithelial cultures
T1 sequence (P37088 1-669): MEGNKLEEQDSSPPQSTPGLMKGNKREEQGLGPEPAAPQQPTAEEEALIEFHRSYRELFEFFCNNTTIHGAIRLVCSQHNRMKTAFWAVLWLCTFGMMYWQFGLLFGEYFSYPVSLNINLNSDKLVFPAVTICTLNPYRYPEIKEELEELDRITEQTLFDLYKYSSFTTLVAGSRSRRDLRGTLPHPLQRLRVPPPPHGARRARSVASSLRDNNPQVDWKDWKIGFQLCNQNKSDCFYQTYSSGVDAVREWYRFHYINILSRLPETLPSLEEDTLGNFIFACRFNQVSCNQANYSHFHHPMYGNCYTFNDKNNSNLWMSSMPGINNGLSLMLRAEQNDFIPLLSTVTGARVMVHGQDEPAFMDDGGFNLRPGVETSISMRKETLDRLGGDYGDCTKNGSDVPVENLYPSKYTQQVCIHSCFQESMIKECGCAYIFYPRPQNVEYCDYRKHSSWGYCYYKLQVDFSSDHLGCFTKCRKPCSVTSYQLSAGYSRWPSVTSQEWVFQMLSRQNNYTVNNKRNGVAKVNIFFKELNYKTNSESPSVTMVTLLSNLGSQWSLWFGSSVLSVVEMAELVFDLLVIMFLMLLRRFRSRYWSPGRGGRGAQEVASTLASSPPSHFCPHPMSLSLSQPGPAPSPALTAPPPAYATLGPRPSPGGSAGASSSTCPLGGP
T1 sequence (P51168 1-640): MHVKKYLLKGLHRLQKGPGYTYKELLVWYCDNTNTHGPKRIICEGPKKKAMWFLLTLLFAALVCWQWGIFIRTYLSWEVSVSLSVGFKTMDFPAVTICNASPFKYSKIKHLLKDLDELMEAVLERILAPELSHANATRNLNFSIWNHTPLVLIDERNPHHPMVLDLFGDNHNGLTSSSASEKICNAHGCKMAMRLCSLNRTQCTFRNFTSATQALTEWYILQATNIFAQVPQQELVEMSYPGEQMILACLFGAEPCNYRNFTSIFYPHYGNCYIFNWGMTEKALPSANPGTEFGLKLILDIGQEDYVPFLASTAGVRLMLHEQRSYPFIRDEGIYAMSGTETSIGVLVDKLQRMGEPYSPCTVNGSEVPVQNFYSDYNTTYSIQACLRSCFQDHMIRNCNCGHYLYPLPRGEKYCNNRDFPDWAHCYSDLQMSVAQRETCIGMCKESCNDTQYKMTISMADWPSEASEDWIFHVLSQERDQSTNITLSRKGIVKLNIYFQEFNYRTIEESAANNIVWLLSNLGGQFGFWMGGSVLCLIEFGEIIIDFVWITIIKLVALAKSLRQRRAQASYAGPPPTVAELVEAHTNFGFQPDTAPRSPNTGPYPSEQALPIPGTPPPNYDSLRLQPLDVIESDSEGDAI
T1 sequence (P51170 1-649): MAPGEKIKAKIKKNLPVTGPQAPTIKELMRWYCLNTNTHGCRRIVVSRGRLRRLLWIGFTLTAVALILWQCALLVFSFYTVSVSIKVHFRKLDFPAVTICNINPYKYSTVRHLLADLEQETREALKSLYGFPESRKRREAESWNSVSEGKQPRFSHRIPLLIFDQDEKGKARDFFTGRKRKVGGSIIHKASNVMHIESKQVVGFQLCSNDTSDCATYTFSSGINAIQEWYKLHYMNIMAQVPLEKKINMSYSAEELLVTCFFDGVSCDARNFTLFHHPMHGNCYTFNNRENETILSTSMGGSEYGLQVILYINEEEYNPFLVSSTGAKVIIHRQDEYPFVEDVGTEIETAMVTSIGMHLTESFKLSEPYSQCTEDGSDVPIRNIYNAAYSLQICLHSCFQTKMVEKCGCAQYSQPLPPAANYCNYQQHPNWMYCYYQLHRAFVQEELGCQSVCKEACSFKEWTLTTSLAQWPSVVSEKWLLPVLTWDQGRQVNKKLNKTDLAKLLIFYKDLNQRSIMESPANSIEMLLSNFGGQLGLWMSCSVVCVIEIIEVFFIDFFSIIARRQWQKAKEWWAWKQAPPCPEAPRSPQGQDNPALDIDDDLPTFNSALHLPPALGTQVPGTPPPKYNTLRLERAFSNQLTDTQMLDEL

T2: αβγENaC (Rattus norvegicus, UniProt P37089+P37090+P37091)
T2 construct: expressed in transfected cells; host or cells: Xenopus laevis oocytes (cRNA injection)
T2 sequence (P37089 1-698): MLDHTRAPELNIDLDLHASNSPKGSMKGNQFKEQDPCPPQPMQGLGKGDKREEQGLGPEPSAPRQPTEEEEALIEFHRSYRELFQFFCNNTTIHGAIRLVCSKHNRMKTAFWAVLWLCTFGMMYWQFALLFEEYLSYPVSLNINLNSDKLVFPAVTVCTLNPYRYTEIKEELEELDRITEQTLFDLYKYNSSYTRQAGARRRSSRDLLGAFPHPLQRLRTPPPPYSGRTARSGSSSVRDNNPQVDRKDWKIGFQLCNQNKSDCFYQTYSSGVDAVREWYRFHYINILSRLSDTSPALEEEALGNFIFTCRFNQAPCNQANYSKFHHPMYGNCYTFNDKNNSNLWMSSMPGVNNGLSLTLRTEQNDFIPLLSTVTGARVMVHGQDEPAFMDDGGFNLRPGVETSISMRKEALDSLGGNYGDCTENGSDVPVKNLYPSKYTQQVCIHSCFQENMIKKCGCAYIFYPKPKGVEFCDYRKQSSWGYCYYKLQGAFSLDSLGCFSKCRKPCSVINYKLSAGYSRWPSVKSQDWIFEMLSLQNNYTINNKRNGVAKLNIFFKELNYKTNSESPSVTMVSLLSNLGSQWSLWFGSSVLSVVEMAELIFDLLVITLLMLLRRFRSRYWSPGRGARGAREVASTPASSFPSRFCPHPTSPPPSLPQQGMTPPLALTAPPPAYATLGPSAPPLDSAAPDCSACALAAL
T2 sequence (P37090 1-638): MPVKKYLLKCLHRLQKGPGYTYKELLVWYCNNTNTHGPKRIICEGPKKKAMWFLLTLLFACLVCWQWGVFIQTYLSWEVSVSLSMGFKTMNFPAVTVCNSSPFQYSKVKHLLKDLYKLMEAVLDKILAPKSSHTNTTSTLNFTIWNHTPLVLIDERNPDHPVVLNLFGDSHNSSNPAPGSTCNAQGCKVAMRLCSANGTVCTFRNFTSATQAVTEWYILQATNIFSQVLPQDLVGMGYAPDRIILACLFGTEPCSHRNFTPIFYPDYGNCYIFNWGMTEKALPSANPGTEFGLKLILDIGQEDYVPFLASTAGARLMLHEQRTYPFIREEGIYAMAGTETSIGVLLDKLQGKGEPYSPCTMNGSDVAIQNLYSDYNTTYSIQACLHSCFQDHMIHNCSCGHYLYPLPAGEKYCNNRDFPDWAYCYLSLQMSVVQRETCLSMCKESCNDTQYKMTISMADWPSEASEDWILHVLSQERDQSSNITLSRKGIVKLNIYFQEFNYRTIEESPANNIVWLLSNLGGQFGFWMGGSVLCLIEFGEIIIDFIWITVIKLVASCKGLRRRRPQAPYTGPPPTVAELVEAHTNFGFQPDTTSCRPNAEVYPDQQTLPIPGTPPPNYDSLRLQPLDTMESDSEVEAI
T2 sequence (P37091 1-650): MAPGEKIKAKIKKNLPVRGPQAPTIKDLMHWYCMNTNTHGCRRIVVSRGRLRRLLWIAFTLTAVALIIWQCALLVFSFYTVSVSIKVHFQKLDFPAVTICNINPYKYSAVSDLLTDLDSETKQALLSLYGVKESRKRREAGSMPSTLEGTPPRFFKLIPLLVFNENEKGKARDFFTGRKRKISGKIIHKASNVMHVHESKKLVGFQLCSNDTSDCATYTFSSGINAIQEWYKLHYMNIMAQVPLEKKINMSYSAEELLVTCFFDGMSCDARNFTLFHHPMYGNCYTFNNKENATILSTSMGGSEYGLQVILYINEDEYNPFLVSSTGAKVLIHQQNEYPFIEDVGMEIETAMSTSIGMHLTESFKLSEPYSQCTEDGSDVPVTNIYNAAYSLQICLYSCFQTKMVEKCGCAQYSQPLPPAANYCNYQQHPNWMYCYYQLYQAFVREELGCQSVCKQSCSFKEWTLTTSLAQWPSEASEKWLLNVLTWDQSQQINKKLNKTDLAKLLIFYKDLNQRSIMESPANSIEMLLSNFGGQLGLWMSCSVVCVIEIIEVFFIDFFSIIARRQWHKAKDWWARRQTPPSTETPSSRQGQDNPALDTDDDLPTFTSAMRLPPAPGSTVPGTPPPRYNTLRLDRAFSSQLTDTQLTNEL

B1: recombinant SPLUNC1 that had been reduced with DTT: recombinant SPLUNC1 reduced with DTT (protein, UniProt Q9NP55 20-256, looked up)
BPI fold-containing family A …: QFGGLPVPLDQTLPLNVNPALPLSPTGLAGSLTNALSNGLLSGGLLGILENLPLLDILKPGGGTSGGLLGGLLGKVTSVIPGLNNIIDIKVTDPQLLELGLVQSPDGHRLYVTIPLGIKLQVNTPLVGASLLRLAVKLDITAEILAVRDKQERIHLVLGDCTHSPGSLQISLLDGLGPLPIQGLLDSLTGILNKVLPELVQGNVCPLVNEVLRGLDITLVHDIVNMLIHGLQFVIKV
modifications: DTT-reduced
B2: LPLUNC1: long PLUNC family member co-expressed in oocytes (protein)
chain: TLSPTAVLILGPKVIKEKLTQELKDHNATSILQQLPLLSAMREKPAGGIPVLGSLVNTVLKHIIWLKVITANILQLQVKPSANDQELLVKIPLDMVAGFNTPLVKTIVEFHMTTEAQATIRMDTSASGPTRLVLSDCATSHGSLRIQLLHKLSFLVNALAKQVMNLLVPSLPNLVKNQLCPVIEASFNGMYADLLQLVKVPISLSIDRLEFDLLYPAIKGDTIQLYLGAKLLDSQGKVTKWFNNSAASLTMPTLDNIPFSLIVSQDVVKAAVAAVLSPEEFMVLLDSVLPESAHRLKSSIGLINEKAADKLGSTQIVKILTQDTPEFFIDQGHAKVAQLIVLEVFPSSEALRPLFTLGIEASSEAQFYTKGDQLILNLNNISSDRIQLMNSGIGWFQPDVLKNIITEIIHSILLPNQNGKLRSGVPVSLVKALGFEAAESSLTKDALVLTPASLWKPSSPVSQ
B3: SPLUNC2: human SPLUNC2 protein (SEQ ID NO:2), co-expressed in oocytes (protein, listed as Homo sapiens)
chain: MLQLWKLVLLCGVLTGTSESLLDNLGNDLSNVVDKLEPVLHEGLETVDNTLKGILEKLKVDLGVLQKSSAWQLAKQKAQEAEKLLNNVISKLLPTNTDIFGLKISNSLILDVKAEPIDDGKGLNLSFPVTANVTVAGPIIGQIINLKASLDLLTAVTIETDPQTHQPVAVLGECASDPTSISLSLLDKHSQIINKFVNSVINTLKSTVSSLLQKEICPLIRIFIHSLDVNVIQQVVDNPQHKTQLQTLI

Key:
Format in all cases: cell-based
CFTR = molecular target: T3, CFTR (Homo sapiens, UniProt P13569); assay: CFTR activity in Xenopus oocytes co-expressing CFTR and β2 adrenergic receptor; conditions: 10 μM isoproterenol, β2AR co-expressed
T3 construct: expressed in transfected cells; host or cells: Xenopus laevis oocytes
Experimental: (§1) Oocyte studies. Xenopus laevis oocytes were harvested and injected as described (Donaldson, et al., J. Biol. Chem. 277:8338 (2002)). Defolliculated healthy stage V-VI oocytes were injected with 0.3 ng of cRNA of each ENaC subunit. Injected oocytes were kept in modified Barth's saline (in mM: 88 NaCl, 1 KCl, 2.4 NaHCO3, 0.3 Ca(NO3)2, 0.41 CaCl2, 0.82 MgSO4, and 15 HEPES, adjusted to pH 7.35 with Tris). Oocytes were studied 24 hr after injection using the two electrode voltage clamp technique as previously described (Donaldson, et al., J. Biol. Chem. 277:8338 (2002)). Oocytes were clamped at a holding potential of […]. The change in amiloride-sensitive whole cell current as an indicator of ENaC activity was determined by subtracting the corresponding current value measured in the presence of 10 μM amiloride from that measured before the application of amiloride.
In both cases, we co-expressed CFTR with the β2 adrenergic receptor (β2AR) which can be stimulated with isoproterenol to raise cAMP and stimulate CFTR (Uezono et al., Receptors Channels 1:233 (1993)).

ENaC = molecular target: T1, ENaC; assay: Transepithelial voltage under thin film conditions in human bronchial epithelial cultures (microelectrode); conditions: prewashed cultures, PD remeasured 45 min later; DTT-reduced vs 50 ng/ml recombinant SPLUNC1
Text: Tissue procurement and cell culture: Cells were harvested by enzymatic digestion from human bronchial tissue as previously described under a protocol approved by the UNC School of Medicine IRB (Tarran et al., J. Gen. Physiol. 127:591 (2006)). Human excess donor lungs and excised recipient lungs were obtained at the time of lung transplantation from portions of main stem or […] bronchi and cells were harvested by enzymatic digestion. All preparations were maintained at an air-liquid interface in a modified bronchial epithelial medium and used 2-5 weeks after seeding on 12 mm T-Clear inserts (Corning Costar) coated with human placental type VI collagen (Sigma). Phosphate buffered saline (PBS) was used for washing human bronchial epithelial culture mucosal surfaces.
Microelectrode studies. A single-barreled potential difference-sensing electrode was placed in the airway surface liquid by micromanipulator and used in conjunction with a macroelectrode in the serosal solution to measure transepithelial voltage using a voltmeter (World Precision Instruments). […] Transepithelial resistance was routinely measured using the EVOM system (WPI) as previously described (Tarran et al., J. Gen. Physiol. 127:591 (2006)).

αβγENaC = molecular target: T2, αβγENaC; assay: Amiloride-sensitive whole cell current in Xenopus laevis oocytes expressing ENaC (two electrode voltage clamp); conditions: co-expression with α,β,γ ENaC in oocytes, FIG. 13
Experimental: as §1

T3 sequence (P13569 whole entry, species assumed): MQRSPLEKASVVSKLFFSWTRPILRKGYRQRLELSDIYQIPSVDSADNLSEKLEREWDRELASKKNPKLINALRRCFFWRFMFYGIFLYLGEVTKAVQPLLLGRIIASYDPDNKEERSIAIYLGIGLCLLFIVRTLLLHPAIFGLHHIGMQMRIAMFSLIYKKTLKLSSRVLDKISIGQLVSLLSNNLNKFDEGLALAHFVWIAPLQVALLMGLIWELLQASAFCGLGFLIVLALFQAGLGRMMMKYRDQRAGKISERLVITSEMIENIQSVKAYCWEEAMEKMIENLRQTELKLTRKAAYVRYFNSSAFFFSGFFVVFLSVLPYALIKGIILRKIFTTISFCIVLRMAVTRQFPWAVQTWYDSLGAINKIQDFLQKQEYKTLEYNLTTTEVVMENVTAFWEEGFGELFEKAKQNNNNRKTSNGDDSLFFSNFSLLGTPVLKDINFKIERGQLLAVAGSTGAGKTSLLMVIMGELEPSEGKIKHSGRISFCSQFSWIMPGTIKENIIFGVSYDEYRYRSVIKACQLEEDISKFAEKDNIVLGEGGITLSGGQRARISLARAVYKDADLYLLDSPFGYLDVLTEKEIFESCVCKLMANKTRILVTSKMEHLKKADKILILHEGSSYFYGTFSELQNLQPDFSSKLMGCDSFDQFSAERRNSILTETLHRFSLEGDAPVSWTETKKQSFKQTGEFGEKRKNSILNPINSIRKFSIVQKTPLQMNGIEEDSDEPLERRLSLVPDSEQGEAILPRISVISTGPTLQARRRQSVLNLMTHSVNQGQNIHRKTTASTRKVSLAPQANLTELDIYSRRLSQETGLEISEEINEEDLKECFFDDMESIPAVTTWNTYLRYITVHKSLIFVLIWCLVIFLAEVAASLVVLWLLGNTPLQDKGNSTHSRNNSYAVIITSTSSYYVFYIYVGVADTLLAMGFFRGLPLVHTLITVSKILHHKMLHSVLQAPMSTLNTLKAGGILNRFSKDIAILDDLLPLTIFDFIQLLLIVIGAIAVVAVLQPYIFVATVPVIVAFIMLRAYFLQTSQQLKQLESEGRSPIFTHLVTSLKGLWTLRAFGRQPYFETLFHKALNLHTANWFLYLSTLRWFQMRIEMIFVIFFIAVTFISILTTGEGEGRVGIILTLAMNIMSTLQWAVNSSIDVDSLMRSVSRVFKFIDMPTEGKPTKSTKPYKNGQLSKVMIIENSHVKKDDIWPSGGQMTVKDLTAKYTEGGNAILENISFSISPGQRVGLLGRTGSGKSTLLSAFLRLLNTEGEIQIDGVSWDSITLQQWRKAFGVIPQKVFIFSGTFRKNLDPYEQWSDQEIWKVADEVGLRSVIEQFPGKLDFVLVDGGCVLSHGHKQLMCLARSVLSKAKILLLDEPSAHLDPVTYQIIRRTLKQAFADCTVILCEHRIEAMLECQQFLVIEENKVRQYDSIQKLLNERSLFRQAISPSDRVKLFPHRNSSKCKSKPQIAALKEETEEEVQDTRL

| Molecule | reduction of amiloride-sensitive ENaC current relative to CTRL (significance) (αβγENaC) | also measured |
| --- | --- | --- |
| CC(C)NCC(O)c1ccc(O)c(O)c1 (stereo not shown) [isoproterenol, reference compound] |  | CFTR activation (CFTR): robustly activated |
| B1 |  | inhibition of the transepithelial PD (SPLUNC1 activity) (ENaC): abolished; also recorded: attenuated |
| B2 | no significant ENaC current reduction |  |
| B3 | borderline significance |  |
